# Laboratory results: paper PMC5053906 (Neuron, 2016)
# Biological target: the molecule itself
# Assay: single molecule subunit counting
protein,measurement,value
"C-terminally GFP-tagged mGluR2 (receptor, rat, UniProt P31421 19-872, looked up) EGPAKKVLTLEGDLVLGGLFPVHQKGGPAEECGPVNEHRGIQRLEAMLFALDRINRDPHLLPGVRLGAHILDSCSKDTHALEQALDFVRASLSRGADGSRHICPDGSYATHSDAPTAVTGVIGGSYSDVSIQVANLLRLFQIPQISYASTSAKLSDKSRYDYFARTVPPDFFQAKAMAEILRFFNWTYVSTVASEGDYGETGIEAFELEARARNICVATSEKVGRAMSRAAFEGVVRALLQKPSARVAVLFTRSEDARELLAATQRLNASFTWVASDGWGALESVVAGSERAAEGAITIELASYPISDFASYFQSLDPWNNSRNPWFREFWEERFHCSFRQRDCAAHSLRAVPFEQESKIMFVVNAVYAMAHALHNMHRALCPNTTHLCDAMRPVNGRRLYKDFVLNVKFDAPFRPADTDDEVRFDRFGDGIGRYNIFTYLRAGSGRYRYQKVGYWAEGLTLDTSFIPWASPSAGPLPASRCSEPCLQNEVKSVQPGEVCCWLCIPCQPYEYRLDEFTCADCGLGYWPNASLTGCFELPQEYIRWGDAWAVGPVTIACLGALATLFVLGVFVRHNATPVVKASGRELCYILLGGVFLCYCMTFVFIAKPSTAVCTLRRLGLGTAFSVCYSALLTKTNRIARIFGGAREGAQRPRFISPASQVAICLALISGQLLIVAAWLVVEAPGTGKETAPERREVVTLRCNHRDASMLGSLAYNVLLIALCTLYAFKTRKCPENFNEAKFIGFTMYTTCIIWLAFLPIFYVTSSDYRVQTTTMCVSVSLSGSVVLGCLFAPKLHIILFQPQKNVVSHRAPTSRFGSAAPRASANLGQGSGSQFVPTVCNGREVVDSTTSSL",stoichiometry N,2
